Paper PMC5986797, “Laminin heparin-binding peptides bind to several growth factors and enhance diabetic wound healing” (Nature Communications, 2018)

What was measured:
[1] = molecular target: recombinant human laminin-521 (human) (UniProt O15230); experiment: SPR; laminin-521 immobilised by amine coupling on a C1 chip (~2000 RU); GF flown at 20 μL/min in 0.01 M HEPES pH 7.4, 0.15 M NaCl, 0.005% surfactant P20; Langmuir binding kinetics
[2] = molecular target: laminin peptide LAMA3_(3043–3067) (human) (UniProt Q16787)
[3] = molecular target: laminin peptide LAMA5_(3417–3436) (human) (UniProt O15230)
[4] = molecular target: recombinant laminin LAMA3_(2928–3150) protein (human) (UniProt Q16787); experiment: SPR; LAMA3 2928–3150 immobilised by amine coupling on a C1 chip (~1000 RU); GF flown at 20 μL/min in 0.01 M HEPES pH 7.4, 0.15 M NaCl, 0.005% surfactant P20; Langmuir binding kinetics
Chain of recombinant laminin LAMA3_(2928–3150) protein (human) (Q16787 2928-3150): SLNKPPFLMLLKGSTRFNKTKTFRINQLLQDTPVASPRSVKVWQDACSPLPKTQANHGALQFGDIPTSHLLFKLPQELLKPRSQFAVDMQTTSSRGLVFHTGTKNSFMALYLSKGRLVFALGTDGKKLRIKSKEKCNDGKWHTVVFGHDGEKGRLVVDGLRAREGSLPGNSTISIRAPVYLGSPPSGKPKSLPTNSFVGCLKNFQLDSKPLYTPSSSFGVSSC

Chain of laminin peptide LAMA5_(3417–3436) (human) (O15230 3417-3436): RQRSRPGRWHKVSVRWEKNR
Chain of laminin peptide LAMA3_(3043–3067) (human) (Q16787 3043-3067): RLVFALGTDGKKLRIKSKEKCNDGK

A Kd [1] of 5.8 nM, a cumulative release of VEGF-A165 after 5 days from a fibrin matrix with covalently incorporated α2PI1–8-LAMA3 (3043–3067) (without peptide >85% released after 24 h) [2] of 25% and a cumulative release of VEGF-A165 after 5 days from a fibrin matrix with covalently incorporated α2PI1–8-LAMA5 (3417–3436) (without peptide >85% released after 24 h) [3] of 31% were found for “vascular endothelial cell growth factor VEGF-A165 (ligand)” in this work. The Kd [4] was 1.2 nM.
